Source: the supplement of paper PMC12783771
± gives the standard deviation of the averaged measurements.

B1: library; numbered along this chain (parent)
chain: MNIQIGELAKRTACPVVTIRFYEQEGLLPPPGRSRGNFRLYGEEHVERLQFIRHCRSLDMPLSDVRTLLSYRKRPDQDCGEVNMLLDEHIRQVESRIGALLELKHHLVELREACSGARPAQSCGILQGLSDCVCDTRGTTAHPSD

Legend:
[1] = variants of: B1; test: sfGFP reporter fluorescence (15 h) (µM FITC); higher = higher leak; conditions: library round: Round 1; ligand: none
Experimental: (§1)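 Cell-free biosensing: 1 µL Echo-assembled CFE reactions with linear PbrR variant templates (5 nM) and pPbrR-sfGFP reporter, with 1 µM Pb, 30 µM Zn or no ligand; endpoint sfGFP fluorescence after 15 h at 30 °C calibrated as µM FITC. Round 1 ML-predicted PbrR mutants; 3 biological replicates.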

[2] = variants of: B1; test: sfGFP reporter fluorescence (15 h) (µM FITC); higher = stronger transcriptional activation; conditions: library round: Round 1
Experimental: as §1

Row | Variant | sfGFP reporter fluorescence [1] | sfGFP reporter fluorescence ([2]; ligand: 1 µM Pb) | sfGFP reporter fluorescence ([2]; ligand: 30 µM Zn)
1 | P61N E112V | 0.0641 ± 0.0026 | 0.0906 ± 0.0036 | 0.387 ± 0.058
2 | P61N I90L K104G | 0.0641 ± 0.0019 | 0.0616 ± 0.0054 | 0.119 ± 0.012
3 | P61N K104V L107E | 0.0663 ± 0.0026 | 0.0646 ± 0.0037 | 0.06805 ± 0.00056
4 | P61N L62I | 0.0668 ± 0.0015 | 0.0856 ± 0.0013 | 0.379 ± 0.015
5 | P61N L68F I90T | 0.0702 ± 0.0011 | 0.0958 ± 0.017 | 0.435 ± 0.044
6 | P61N P143L | 0.0754 ± 0.0012 | 0.151 ± 0.0086 | 0.804 ± 0.13
7 | P61N R96A | 0.0665 ± 0.00092 | 0.0876 ± 0.0059 | 0.238 ± 0.024
8 | P61N R111L | 0.0644 ± 0.0014 | 0.0861 ± 0.0066 | 0.265 ± 0.025
9 | P61N V108M | 0.07 ± 0.0013 | 0.122 ± 0.0096 | 0.698 ± 0.094
10 | P61N V108M R111C | 0.0735 ± 0.00085 | 0.0925 ± 0.013 | 0.237 ± 0.0083
11 | P61S G128I D131C | 0.12 ± 0.0019 | 0.286 ± 0.053 | 1.25 ± 0.2
12 | P61T I97N K104V | 0.0652 ± 0.0013 | 0.0689 ± 0.0055 | 0.169 ± 0.017
13 | L62I K104V | 0.072 ± 0.0011 | 0.109 ± 0.0031 | 0.417 ± 0.022
14 | L62I R111L | 0.0639 ± 0.002 | 0.0671 ± 0.0036 | 0.143 ± 0.0089
15 | D64A C134M | 0.135 ± 0.0022 | 0.233 ± 0.0049 | 1.77 ± 0.21
16 | D64A D135R | 0.0876 ± 0.00097 | 0.18 ± 0.034 | 1.55 ± 0.021
17 | D64A E94R | 0.0816 ± 0.0051 | 0.179 ± 0.013 | 1.44 ± 0.18
18 | D64A I97M | 0.0644 ± 0.002 | 0.0781 ± 0.0023 | 0.507 ± 0.02
19 | D64A K104C | 0.115 ± 0.002 | 0.342 ± 0.031 | 1.25 ± 0.076
20 | D64A R111L | 0.061 ± 0.0013 | 0.105 ± 0.01 | 0.743 ± 0.022
21 | D64G N83S D135A | 0.0656 ± 0.00097 | 0.0915 ± 0.002 | 0.292 ± 0.0096
22 | D64I D135T | 0.164 ± 0.02 | 0.514 ± 0.04 | 1.63 ± 0.29
23 | D64I R111L | 0.0903 ± 0.0015 | 0.254 ± 0.032 | 1.39 ± 0.12

Row | Variant | sfGFP reporter fluorescence [1] | sfGFP reporter fluorescence ([2]; ligand: 1 µM Pb) | sfGFP reporter fluorescence ([2]; ligand: 30 µM Zn)
24 | D64K C79L | 0.0594 ± 0.00097 | 0.05925 ± 0.00021 | 0.0572 ± 0.00064
25 | D64K C114F | 0.0621 ± 0.0032 | 0.0613 ± 0.0011 | 0.0596 ± 0.0016
26 | D64K C114I | 0.05986 ± 0.00056 | 0.0594 ± 0.0011 | 0.0599 ± 0.0022
27 | D64K D131A | 0.131 ± 0.0097 | 0.37 ± 0.032 | 1.76 ± 0.11
28 | D64K D131C | 0.0864 ± 0.0047 | 0.282 ± 0.026 | 0.929 ± 0.032
29 | D64K D131L | 0.176 ± 0.017 | 0.513 ± 0.098 | 1.89 ± 0.093
30 | D64K D135Y | 0.149 ± 0.014 | 0.386 ± 0.028 | 1.09 ± 0.15
31 | D64K E112F | 0.06988 ± 0.00056 | 0.145 ± 0.0047 | 0.802 ± 0.055
32 | D64K I90C K104V | 0.0914 ± 0.0024 | 0.341 ± 0.073 | 0.959 ± 0.086
33 | D64K I97A | 0.2087 ± 0.002 | 0.581 ± 0.17 | 2.21 ± 0.066
34 | D64K I97S | 0.0966 ± 0.0019 | 0.216 ± 0.016 | 1.09 ± 0.074
35 | D64K K104E | 0.0882 ± 0.0047 | 0.31 ± 0.058 | 1.65 ± 0.039
36 | D64K N83F | 0.0616 ± 0.0024 | 0.198 ± 0.035 | 0.143 ± 0.01
37 | D64K N83S I90N | 0.0679 ± 0.0014 | 0.223 ± 0.065 | 0.737 ± 0.02
38 | D64K N83T | 0.0636 ± 0.0021 | 0.186 ± 0.009 | 0.695 ± 0.022
39 | D64K N83T D131S | 0.0698 ± 0.0016 | 0.29 ± 0.022 | 1.03 ± 0.022
40 | D64K N83T R111L | 0.0651 ± 0.0024 | 0.125 ± 0.0074 | 0.532 ± 0.049
41 | D64K R111A | 0.112 ± 0.0044 | 0.382 ± 0.052 | 1.83 ± 0.27
42 | D64K R111D | 0.0666 ± 0.00092 | 0.164 ± 0.011 | 0.682 ± 0.097
43 | D64K R111L | 0.06487 ± 0.00064 | 0.154 ± 0.013 | 0.898 ± 0.071
44 | D64K V108E | 0.0746 ± 0.0013 | 0.165 ± 0.015 | 1.42 ± 0.1
45 | D64L K104V L107R | 0.0627 ± 0.0017 | 0.0614 ± 0.0042 | 0.0593 ± 0.0044
46 | D64S E109H | 0.0794 ± 0.0043 | 0.193 ± 0.0059 | 1 ± 0.12

Row | Variant | sfGFP reporter fluorescence [1] | sfGFP reporter fluorescence ([2]; ligand: 1 µM Pb) | sfGFP reporter fluorescence ([2]; ligand: 30 µM Zn)
47 | D64T D131C | 0.143 ± 0.0074 | 0.359 ± 0.033 | 1.51 ± 0.07
48 | D64T D135A | 0.13 ± 0.0033 | 0.23 ± 0.0095 | 1.63 ± 0.1
49 | D64T D135R | 0.137 ± 0.008 | 0.29 ± 0.041 | 1.76 ± 0.28
50 | D64T E88A C134E | 0.204 ± 0.031 | 0.238 ± 0.062 | 1.65 ± 0.15
51 | D64T E112I D135A | 0.08637 ± 0.00056 | 0.197 ± 0.029 | 1.56 ± 0.079
52 | D64T G128I D135A | 0.4487 ± 0.003 | 0.801 ± 0.052 | 2.35 ± 0.3
53 | D64T K104T | 0.207 ± 0.0096 | 0.472 ± 0.087 | 1.83 ± 0.16
54 | D64T L107C | 2.07 ± 0.33 | 2.22 ± 0.12 | 2.63 ± 0.3
55 | D64T N83T R111I | 0.0783 ± 0.0017 | 0.156 ± 0.014 | 1.12 ± 0.13
56 | D64T Q127G | 0.0611 ± 0.004 | 0.0887 ± 0.0049 | 0.594 ± 0.062
57 | D64T R111A | 0.173 ± 0.0098 | 0.246 ± 0.078 | 2.17 ± 0.2
58 | D64T R111F | 0.09114 ± 0.00056 | 0.181 ± 0.022 | 1.71 ± 0.025
59 | C79F G128M | 0.0586 ± 0.0017 | 0.0606 ± 0.0011 | 0.0597 ± 0.00073
60 | E81Q | 0.0605 ± 0.0017 | 0.0673 ± 0.0016 | 0.189 ± 0.022
61 | V82I E112I D131C | 0.0625 ± 0.0026 | 0.0635 ± 0.0028 | 0.0669 ± 0.0057
62 | N83F P143K | 0.0612 ± 0.00097 | 0.0718 ± 0.0033 | 0.0627 ± 0.00097
63 | N83I D131S | 0.063 ± 0.0013 | 0.0862 ± 0.0031 | 0.0633 ± 0.0013
64 | N83I H89C | 0.0654 ± 0.0027 | 0.0645 ± 0.0035 | 0.0687 ± 0.0029
65 | N83I I97H | 0.0618 ± 0.0012 | 0.0654 ± 0.0032 | 0.0625 ± 0.003
66 | N83I K104V | 0.0628 ± 0.0011 | 0.356 ± 0.026 | 0.0679 ± 0.0048
67 | N83M D131A | 0.0614 ± 0.0015 | 0.0845 ± 0.004 | 0.065 ± 0.0015
68 | N83M D135A | 0.0564 ± 0.0017 | 0.102 ± 0.0031 | 0.07 ± 0.0044
69 | N83R D135A | 0.0635 ± 0.0017 | 0.0787 ± 0.005 | 0.0875 ± 0.0015

Row | Variant | sfGFP reporter fluorescence [1] | sfGFP reporter fluorescence ([2]; ligand: 1 µM Pb) | sfGFP reporter fluorescence ([2]; ligand: 30 µM Zn)
70 | N83R L107H | 0.0594 ± 0.00064 | 0.0632 ± 0.0012 | 0.0662 ± 0.0035
71 | N83S D131A D135A | 0.0661 ± 0.0022 | 0.082 ± 0.01 | 0.275 ± 0.028
72 | N83S D135A | 0.0628 ± 0.0014 | 0.0731 ± 0.0064 | 0.219 ± 0.026
73 | N83S D135P | 0.0623 ± 0.00073 | 0.0811 ± 0.0058 | 0.145 ± 0.004
74 | N83S E94D K104A | 0.05986 ± 0.00042 | 0.0734 ± 0.0052 | 0.422 ± 0.014
75 | N83S E112L | 0.0612 ± 0.0034 | 0.0759 ± 0.0016 | 0.152 ± 0.006
76 | N83S I90L R111L | 0.063 ± 0.0026 | 0.079 ± 0.0099 | 0.205 ± 0.021
77 | N83S K104V | 0.064 ± 0.0016 | 0.121 ± 0.0056 | 0.405 ± 0.015
78 | N83S P143W | 0.0614 ± 0.0019 | 0.102 ± 0.012 | 0.556 ± 0.027
79 | N83S R111C | 0.06169 ± 0.00056 | 0.0672 ± 0.002 | 0.0665 ± 0.0011
80 | N83S R111D | 0.0636 ± 0.0039 | 0.0665 ± 0.0026 | 0.0759 ± 0.00097
81 | N83S V108N | 0.0632 ± 0.0015 | 0.0665 ± 0.0043 | 0.146 ± 0.0045
82 | N83T C123L | 0.0594 ± 0.0013 | 0.0586 ± 0.0016 | 0.059 ± 0.0017
83 | N83T C134A | 0.0602 ± 0.0013 | 0.0716 ± 0.0016 | 0.162 ± 0.014
84 | N83T C134L | 0.0568 ± 0.0011 | 0.0739 ± 0.003 | 0.159 ± 0.025
85 | N83T C134M | 0.05754 ± 0.00037 | 0.0707 ± 0.0046 | 0.19 ± 0.022
86 | N83T C134V | 0.0588 ± 0.0022 | 0.0731 ± 0.0054 | 0.168 ± 0.016
87 | N83T D131A | 0.0649 ± 0.0029 | 0.0917 ± 0.0025 | 0.169 ± 0.016
88 | N83T D131A P143I | 0.0661 ± 0.0015 | 0.088 ± 0.0036 | 0.158 ± 0.014
89 | N83T D131A P143L | 0.0646 ± 0.0011 | 0.0895 ± 0.002 | 0.161 ± 0.012
